# Reference: the nanobody polyreactivity screen of Harvey et al. (2022)
# Experiment: yeast display, Sf9 membrane polyspecificity reagent, FACS + sequencing; frameworks hold sequencing errors
# How it was run: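 A synthetic nanobody library was expressed on Saccharomyces cerevisiae BJ5465 by galactose induction for 36–48 hours. The library was stained for 1 hour at 4 °C with 10% biotinylated, detergent-solubilized Sf9 membrane reagent and enriched with streptavidin microbeads before FACS. Low and high (top ~1%) gates were set on anti-HA fluorescence for expression and streptavidin fluorescence for reagent binding, and each polyreactivity label reflects the gate of origin.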
row,Sequence,polyreactivity (PSR sort gate)
1,QVQLVESGGGLVQAGGSLRLSCAASGRIFYIYAMGWYRQAPGKERELVAAISSGGTTNYADSVKGRFTISRDNAKNTVYLQMNSLKPEDTSVDYCNAVRGEKMGYWGQGTQVTVSS,high polyreactivity
2,QVQLVESGGGLVQAGGSLRLSCAASGRIFYKYAMGWYRQAPGKERELVAGISRRGGTTNYADSVKGRFTNSRDNAKNTVYLQMNSLKPEDTAVYYCAVRPLYDRRYTAVRRYDYWGQGTQVTVSS,high polyreactivity
3,QVQLVESGGGLVQAGGSLRLSCAASGRIFYLKVMGWYRQEPGKERELVAAITRRDVTTYADSVKGRFTISRDNAKNTVYLQMNSLKPEDTAVYYCNADSPSLSGDYWGQGTQVTVSS,low polyreactivity
4,QVQLVESGGGLVQAGGSLRLSCAASGRIFYLNVMGWYRQAPGKERELVAAITRRDVTTYADSVKGRFTISRDNAKNTVYLQMNSLKPEDTAVYYCNAVYYNWIGFDYSGQGTQVTVSS,low polyreactivity
5,QVQLVESGGGLVQAGGSLRLSCAASGRIFYLYAMGWYRQAPGKERELVAAITNSDTSTYYADSVKGRFTISRDNAKNTVYLQMNSLKPEDTAVYYCAVSTQYYYFDYYYWGQGTQVTVSS,high polyreactivity
6,QVQLVESGGGLVQAGGSLRLSCAASGRIFYLYAMGWYRQAPGKERELVAAITWSGGSTTYADSVKGRFTISRDNAKNTFYLQMNSLKPEDTAVYYCNADGWSFPSFSPMDYWGQGTQVTVSS,low polyreactivity
7,QVQLVESGGGLVQAGGSLRLSCAASGRIFYLYAMGWYRQAPGKERELVATINSGGSTKYADSVKGRFTISRDNAKNTVYLQMNSLKPEDTAVYYCNAKRWKDYYPYQSWKYGYWGQGTQVTVSS,high polyreactivity
8,QVQLVESGGGLVQAGGSLRLSCAASGRIFYNNAMGWYRQAPGKERELVAAITYSGGSTYYADSVKGRFTISRDNAKNTVYLQMNSLKPEDTAVYYCAAEYYGPYSEGGESYDYWGQGTQVTVSS,low polyreactivity
9,QVQLVESGGGLVQAGGSLRLSCAASGRIFYPNAKGWYIQAPGKETELVAVIRSRGGSTYYADSVKGRFTISRDNAKNTVYLQMNSLKPEDTAVYYCAARWVGRRTKYDYWGQGTQVTVSS,high polyreactivity
10,QVQLVESGGGLVQAGGSLRLSCAASGRIFYPNAMGWYRQAPGKERELVAAITWRGGRTYYADSVKGRFTISRDNAKNTVYLQMNSLKPEDTAVYYCNAVAPGKYNHWGQGTQVTVSS,high polyreactivity
11,QVQLVESGGGLVQAGGSLRLSCAASGRIFYPNAMGWYRQAPGKERELVAVIRSRGGSTYYADSVKGRFTISRDNAKNTVYLQMNSLKPEDTAVYYCAARWVGRRTKYDYWGQGTQVTVSS,high polyreactivity
12,QVQLVESGGGLVQAGGSLRLSCAASGRIFYPYAMGWYIQAPGKEREFVATIRARCGDSTSYADSVKGRFTISRDIAKNTVYLQMNSLKPEDTAVYYCAALFYTYRWRYYVYHMDYWGQGTQVTVSS,low polyreactivity
13,QVQLVESGGGLVQAGGSLRLSCAASGRIFYPYAMGWYRQAPGKERELVAAIRRSGVDTYYADSVKGRFTISRDNAKNTVYLQMNSLIPEDTAVYSCAADPYWFFPHYDSWGQGTQVTVSS,low polyreactivity
14,QVQLVESGGGLVQAGGSLRLSCAASGRIFYPYAMGWYRQAPGKERELVAAISFRDGSTYYADSVKGRFTISRDNAKYTVYLQLNILKPEDTAVYYCAAVGQTHPTSPLYTKYDYWGQGTQVTVSS,low polyreactivity
15,QVQLVESGGGLVQAGGSLRLSCAASGRIFYPYAMGWYRQAPGKERELVAAISRSGGSTYYADSVKGRFTISRDNAKNTVYLQMNSLKPEDTAVYYCAAEVVYFYSDAHIGYVDYEYWGQGTQVTVSS,low polyreactivity
16,QVQLVESGGGLVQAGGSLRLSCAASGRIFYPYAMGWYRQAPGKERELVAAISWNGGRTYYADSVKGRFTISRDNAKNTVYLQMNSLKPEDTAVYYCNAGGYSRVTQRFFHKYDYWGQGTQVTVSS,high polyreactivity
17,QVQLVESGGGLVQAGGSLRLSCAASGRIFYPYAMGWYRQAPGKEREVVAGITSSDDTTYYADSVKGRFTISRDNAKNTVYLQMNSLKPEDTAVYYCNTSVDRGLGYWGQGTQVTVSS,low polyreactivity
18,QVQLVESGGGLVQAGGSLRLSCAASGRIFYQNAMGWYRQAPGKERELVAAISRGDSTYYADSVRGRFTSSRDNAKNTVFLQMNSLKPEDTAVYYCAARRFSYWGKYGYWGQGTQVTVSS,high polyreactivity
19,QVQLVESGGGLVQAGGSLRLSCAASGRIFYRNAMGWYRQAPGKERELVAAISKSGGSTYYADSVKGRFTISRDNAKNTVYLQMNSLKPEDTAVYYCNARPGQSGARFGYWGQGTQVTVSS,high polyreactivity
20,QVQLVESGGGLVQAGGSLRLSCAASGRIFYRNAMGWYRQAPGKERELVAAITGSTGNTYYADSVKGRFTISRDNAKNTVYLQMNSLKPEDTAVYYCIAGLGRWWHYPATYYYYWGQGTQVTVSS,low polyreactivity

row,Sequence,polyreactivity (PSR sort gate)
1,QVQLVESGGGLVQAGGSLRLSCAASGRIFYRNAMGWYRQAPGQERELVAGITRGGSTNYADSVKGRFTLSRDNAKNTVFLHMNSLKPEDTAVYYCAASWPSSLTYYYWGQGSQVTVSS,low polyreactivity
2,QVQLVESGGGLVQAGGSLRLSCAASGRIFYRNAMGWYRQSPGKERELVAAINWSGGSTYYAYSVKGRFTISRDNAKNTVYLQMNSLKPEDTAVYYCATGYRQGEYDYWGQGTQVTLSS,low polyreactivity
3,QVQLVESGGGLVQAGGSLRLSCAASGRIFYRNVMGWYRQAPGKERELVAAISYRGGSTSYADSVKGRFTISRDNAKNTVYLPMHILKPEDTAVDYCNAARIRPAYSDREYWGQGTQVTVSS,low polyreactivity
4,QVQLVESGGGLVQAGGSLRLSCAASGRIFYRNVMGWYRQAPGKERELVAAITYRTGSTYYADSVKGRFTISRDNAKNTVYLQMNSLKPEDTAVYYCATESGLTYDYWGQGTQVTVSS,high polyreactivity
5,QVQLVESGGGLVQAGGSLRLSCAASGRIFYRYAMGWDSQAPGKERELVAAISCGGSTYYADSVKGRFTISRDNAKNTVYLQMNSLKPEDSAVYYCAATWGRGTYYLYYYWGQGTQVTVSS,high polyreactivity
6,QVQLVESGGGLVQAGGSLRLSCAASGRIFYRYAMGWYRQAPGKERELVAAITIGGRTNYADSVKGRFTISRDNAKNTVYLQMNSLKPEDTAVYYCAVVLYTRYPPRVRYYYWGQGTQVTVSS,high polyreactivity
7,QVQLVESGGGLVQAGGSLRLSCAASGRIFYRYVMGWYRQAPGKERELVAAITSSGGSTYYADSVKGRFTISRDNAKNTVYLQMNSLNPEDTAVYYCAADRYTRYRYNYWGQGTQVTVSS,high polyreactivity
8,QVQLVESGGGLVQAGGSLRLSCAASGRIFYSNAMGWYRQAPGKAWELVATISRRGGRTYSADSVKGRFTLSRDIAKNTVYLQMNSLKPEDTAVYYCNANDRNAGSSRGGRLYDSWGQGTQVTVSS,high polyreactivity
9,QVQLVESGGGLVQAGGSLRLSCAASGRIFYSNAMGWYRQAPGKEREFVAAISWSGGGTYYADSVKGRFTISRDNAKNTVYLQMNSLKPEETAVYYCAAVFGYSWAFEYDYWGQGTQVTVSS,low polyreactivity
10,QVQLVESGGGLVQAGGSLRLSCAASGRIFYSNAMGWYRQAPGKERELVAAIRWSGGRTYYADSVNGRFTISRDNAKNSVYLQMNSLKPEDTAGYYCNARGYSGVSGKYGYWGQGTQVTVSS,high polyreactivity
11,QVQLVESGGGLVQAGGSLRLSCAASGRIFYSNAMGWYRQAPGKERELVAAISRSGVRTYYADSVKGRFTISRDNAKNTVYLQMNSLKPEDTAVYYCAAVIYGTTPQDEYDYWGQGTQVTVSS,low polyreactivity
12,QVQLVESGGGLVQAGGSLRLSCAASGRIFYSNAMGWYRQAPGKERELVAVIRRTGSTYYAASVKGRFTISRDNAKNTVYLQMISQIPEDTAVYYCATSIPYGRGGNRYVYWGQGTQVTVSS,high polyreactivity
13,QVQLVESGGGLVQAGGSLRLSCAASGRIFYSNTMGWYRQAPGKERELVAAISRSGGRTYYADSVKGRFTISRDNAKNTVSLQLNSLKPEDTAVYYCNTAYCRNPYYKGYYWGQGTQVTVSS,high polyreactivity
14,QVQLVESGGGLVQAGGSLRLSCAASGRIFYSNTMGWYRQAPGKERELVARIDTGGGSTYADSVKGRFTISRDNAKNTVYLQMNSLKPEDTAVYYCNKKGRWRSWGSTSMVSMDYWGQGTQVTVSS,low polyreactivity
15,QVQLVESGGGLVQAGGSLRLSCAASGRIFYSNVMGWYRQAPGKERELVAAISGRTGGTYYADSVKGRFTISRDNAKNTVYLQMNSLKPEATAVYYCAARVIYYYGSGPYDYWGQGTQVTVSS,low polyreactivity
16,QVQLVESGGGLVQAGGSLRLSCAASGRIFYSNVMGWYRQAPGKERELVAAITSGGSTYYADSVKGRFTISRDNAKNTVYLQMNSLKPEDTAVYYCAARVAFRPRGYIRYYYWGQGTQVTVSS,high polyreactivity
17,QVQLVESGGGLVQAGGSLRLSCAASGRIFYSYAMGWYRQAPGKERELVAAIDESDGSTYYADSVKGRFTISRDNAKNTVYLQMNSLKPEDTAVYYCAADSLLVLFDYWGQGTQVTVSS,low polyreactivity
18,QVQLVESGGGLVQAGGSLRLSCAASGRIFYSYAMGWYRQAPGKERELVAAIRRGGSTNYADSVKGRFTISRDNAKKTVYLQMNSLKPEDTAVYYCAAKGYKGYFLYNYWGQGTQVTVSS,high polyreactivity
19,QVQLVESGGGLVQAGGSLRLSCAASGRIFYSYAMGWYRQAPGKERELVAAISFSVGSTYYADSVKGRFTISRDNAKYTVYLQMNSLKPEDTAVYYCAASLGFPGYEYWGQGTQVTVSS,low polyreactivity
20,QVQLVESGGGLVQAGGSLRLSCAASGRIFYSYAMGWYRQAPGKERELVAAISSAGSTYYADSVKGRFTISRDNAKNTVYLQMNSLKPEDTAVYYCAAGVTYYRYVSYVGPVPLGFDYWGQGTQVTVSS,high polyreactivity
